Source: paper doi:10.1101/2022.06.13.495990 (bioRxiv, 2022)

Molecular target: mCherry-RAB28 (UniProt Q99KL7 1-221)
Experiment: co-IP

B1: FLAG-CFAP418 (natural protein)
chain: MAKDLDELLDEVETKFCRLDPLRLDLGERPKGDGGGGSHSGDRNGAQEKETLRSTETFKKEDDLDSLINEIFEEPDFDRKSFQKFKSKSSSNTCVRAPMQGVSKSCSPVYLSGSAIPCGIGTNTSQRACDRLRCVACDFRIVSYNDYMWDKSCDYLFFRNNMPEFHKLKTKLIEKKGARAYACQCSWRTVEELTDLQTDHQLRWVCGKH
**Q.** With B1 as the binder, how does the “fraction of CFAP418 pulled down” value read?
**A.** The value was about 0.1%.
